How the values were obtained:
[1] = tested on: CC(=O)[C@@H](O)[C@H](O)COP(=O)(O)O; experiment: purified protein; conditions: pH 7.8; 22.0 °C
[2] = tested on: NC(=O)C1=CN([C@@H]2O[C@H](COP(=O)(O)OP(=O)(O)OC[C@H]3O[C@@H](n4cnc5c(N)ncnc54)[C@H](OP(=O)(O)O)[C@@H]3O)[C@@H](O)[C@H]2O)C=CC1; experiment: purified protein; conditions: pH 7.8; 22.0 °C; varied: cofactor

F. tularensis MEP synthase (IspC; 1-deoxy-D-xylulose 5-phosphate reductoisomerase) (Francisella tularensis subsp. holarctica LVS)
Km [1]: 103.7 ± 12.1 µM | Km [2]: 13.3 ± 1.5 µM

— publication PMC2788227 (PLoS ONE, 2009)
